Results taken from the supplement of paper PMC9112550, “Optimization of the antimicrobial peptide Bac7 by deep mutational scanning” (BMC Biology, 2022).

System: Escherichia coli TOP10
Test: shrunken log2 fold change of peptide-encoding DNA abundance (4.5 h post-induction vs induction); higher = less antimicrobial activity (less host growth inhibition)
Settings: time post-induction: 4.5 h; library: site-saturation at positions 5, 18, 19, 20
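Also: peptides expressed intracellularly from a pBAD plasmid library in pooled LB shake-flask culture, induced with 0.3% L-arabinose, DNA abundance read by NGS, three biological replicates, DESeq2 with apeglm shrinkage.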

RRIRKRPPRLPRPRPRPRKMPRP
shrunken log2 fold change: 0.588

RRIRKRPPRLPRPRPRPRKYPRP
shrunken log2 fold change: -0.211

RRIRKRPPRLPRPRPRPRLLPRP
shrunken log2 fold change: 0.517

RRIRKRPPRLPRPRPRPRMPPRP
shrunken log2 fold change: 0.363

RRIRKRPPRLPRPRPRPRMRPRP
shrunken log2 fold change: 1.06

RRIRKRPPRLPRPRPRPRMSPRP
shrunken log2 fold change: -0.216

RRIRKRPPRLPRPRPRPRNSPRP
shrunken log2 fold change: -0.0385

RRIRKRPPRLPRPRPRPRPTPRP
shrunken log2 fold change: 1.04

RRIRKRPPRLPRPRPRPRQKPRP
shrunken log2 fold change: -0.0264

RRIRKRPPRLPRPRPRPRRNPRP
shrunken log2 fold change: 0.316

RRIRKRPPRLPRPRPRPRRTPRP
shrunken log2 fold change: 0.443

RRIRKRPPRLPRPRPRPRRYPRP
shrunken log2 fold change: 0.47

RRIRKRPPRLPRPRPRPRSNPRP
shrunken log2 fold change: 0.515

RRIRKRPPRLPRPRPRPRVDPRP
shrunken log2 fold change: 0.0968

RRIRKRPPRLPRPRPRPRVEPRP
shrunken log2 fold change: 0.144

RRIRKRPPRLPRPRPRPRWNPRP
shrunken log2 fold change: 0.323

RRIRKRPPRLPRPRPRPRYEPRP
shrunken log2 fold change: 0.362

RRIRKRPPRLPRPRPRPSAFPRP
shrunken log2 fold change: 0.619

RRIRKRPPRLPRPRPRPSASPRP
shrunken log2 fold change: 0.288

RRIRKRPPRLPRPRPRPSAWPRP
shrunken log2 fold change: 0.534

RRIRKRPPRLPRPRPRPSDFPRP
shrunken log2 fold change: -0.00266

RRIRKRPPRLPRPRPRPSDGPRP
shrunken log2 fold change: 0.178

RRIRKRPPRLPRPRPRPSDVPRP
shrunken log2 fold change: -0.157

RRIRKRPPRLPRPRPRPSEFPRP
shrunken log2 fold change: 0.154

RRIRKRPPRLPRPRPRPSEPPRP
shrunken log2 fold change: 0.249

RRIRKRPPRLPRPRPRPSFCPRP
shrunken log2 fold change: -0.0321

RRIRKRPPRLPRPRPRPSFSPRP
shrunken log2 fold change: -0.0191

RRIRKRPPRLPRPRPRPSGAPRP
shrunken log2 fold change: 0.539

RRIRKRPPRLPRPRPRPSGEPRP
shrunken log2 fold change: 0.0144

RRIRKRPPRLPRPRPRPSHMPRP
shrunken log2 fold change: -0.0291

RRIRKRPPRLPRPRPRPSIEPRP
shrunken log2 fold change: 0.0829

RRIRKRPPRLPRPRPRPSKIPRP
shrunken log2 fold change: 0.154

RRIRKRPPRLPRPRPRPSKYPRP
shrunken log2 fold change: -0.00772

RRIRKRPPRLPRPRPRPSNEPRP
shrunken log2 fold change: -0.183

RRIRKRPPRLPRPRPRPSNVPRP
shrunken log2 fold change: -0.343

RRIRKRPPRLPRPRPRPSRYPRP
shrunken log2 fold change: 0.086

RRIRKRPPRLPRPRPRPSSYPRP
shrunken log2 fold change: 0.0295

RRIRKRPPRLPRPRPRPSTTPRP
shrunken log2 fold change: 0.162

RRIRKRPPRLPRPRPRPSTWPRP
shrunken log2 fold change: -0.18

RRIRKRPPRLPRPRPRPSVSPRP
shrunken log2 fold change: 0.172

RRIRKRPPRLPRPRPRPSWTPRP
shrunken log2 fold change: -0.0691

RRIRKRPPRLPRPRPRPSWWPRP
shrunken log2 fold change: 0.138

RRIRKRPPRLPRPRPRPSYNPRP
shrunken log2 fold change: -0.397

RRIRKRPPRLPRPRPRPTCIPRP
shrunken log2 fold change: -0.176

RRIRKRPPRLPRPRPRPTDTPRP
shrunken log2 fold change: 0.261

RRIRKRPPRLPRPRPRPTFCPRP
shrunken log2 fold change: 0.193

RRIRKRPPRLPRPRPRPTFVPRP
shrunken log2 fold change: 0.362

RRIRKRPPRLPRPRPRPTGFPRP
shrunken log2 fold change: 0.0653

RRIRKRPPRLPRPRPRPTHCPRP
shrunken log2 fold change: 0.251

RRIRKRPPRLPRPRPRPTIHPRP
shrunken log2 fold change: -0.087

RRIRKRPPRLPRPRPRPTIWPRP
shrunken log2 fold change: 0.319

RRIRKRPPRLPRPRPRPTIYPRP
shrunken log2 fold change: -0.0381

RRIRKRPPRLPRPRPRPTKEPRP
shrunken log2 fold change: 1.6

RRIRKRPPRLPRPRPRPTKGPRP
shrunken log2 fold change: 0.0795

RRIRKRPPRLPRPRPRPTLGPRP
shrunken log2 fold change: 1.72

RRIRKRPPRLPRPRPRPTLVPRP
shrunken log2 fold change: 0.528

RRIRKRPPRLPRPRPRPTMQPRP
shrunken log2 fold change: 0.626

RRIRKRPPRLPRPRPRPTNYPRP
shrunken log2 fold change: -0.114

RRIRKRPPRLPRPRPRPTPRPRP
shrunken log2 fold change: 1.05

RRIRKRPPRLPRPRPRPTRCPRP
shrunken log2 fold change: 0.876

RRIRKRPPRLPRPRPRPTTEPRP
shrunken log2 fold change: 0.579

RRIRKRPPRLPRPRPRPTTNPRP
shrunken log2 fold change: 0.486

RRIRKRPPRLPRPRPRPTYMPRP
shrunken log2 fold change: -0.121

RRIRKRPPRLPRPRPRPVARPRP
shrunken log2 fold change: 0.397

RRIRKRPPRLPRPRPRPVCSPRP
shrunken log2 fold change: 0.0361

RRIRKRPPRLPRPRPRPVDEPRP
shrunken log2 fold change: 0.358

RRIRKRPPRLPRPRPRPVDLPRP
shrunken log2 fold change: -0.0854

RRIRKRPPRLPRPRPRPVEMPRP
shrunken log2 fold change: 0.126

RRIRKRPPRLPRPRPRPVETPRP
shrunken log2 fold change: 0.416

RRIRKRPPRLPRPRPRPVGYPRP
shrunken log2 fold change: 0.00938

RRIRKRPPRLPRPRPRPVHEPRP
shrunken log2 fold change: 0.325

RRIRKRPPRLPRPRPRPVKGPRP
shrunken log2 fold change: 0.322

RRIRKRPPRLPRPRPRPVKPPRP
shrunken log2 fold change: 0.0508

RRIRKRPPRLPRPRPRPVKQPRP
shrunken log2 fold change: 0.0206

RRIRKRPPRLPRPRPRPVKWPRP
shrunken log2 fold change: 0.122
